Assay [1] addresses H63 CAR (CD8 signal peptide-H63-human CD8 hinge region-human CD8 transmembrane region-human 4-1BB costimulatory domain-CD3zeta signaling domain), on H63 CAR-T lymphocytes. In words: flow cytometry; biotin-protein L and PE-streptavidin on H63 CAR-T lymphocytes. (In general: In flow cytometry, cells or beads pass a laser one at a time.)
Assay [2] addresses H63 CAR as expressed from H63 CAR-2A-TMEM59, on H63 CAR-2A-TMEM59-T lymphocytes. In words: flow cytometry; biotin-protein L and PE-streptavidin on H63 CAR-2A-TMEM59-T lymphocytes.

Sequence of H63 CAR (CD8 signal peptide-H63-human CD8 hinge region-human CD8 transmembrane region-human 4-1BB costimulatory domain-CD3zeta signaling domain), on H63 CAR-T lymphocytes (chain, as listed by the source): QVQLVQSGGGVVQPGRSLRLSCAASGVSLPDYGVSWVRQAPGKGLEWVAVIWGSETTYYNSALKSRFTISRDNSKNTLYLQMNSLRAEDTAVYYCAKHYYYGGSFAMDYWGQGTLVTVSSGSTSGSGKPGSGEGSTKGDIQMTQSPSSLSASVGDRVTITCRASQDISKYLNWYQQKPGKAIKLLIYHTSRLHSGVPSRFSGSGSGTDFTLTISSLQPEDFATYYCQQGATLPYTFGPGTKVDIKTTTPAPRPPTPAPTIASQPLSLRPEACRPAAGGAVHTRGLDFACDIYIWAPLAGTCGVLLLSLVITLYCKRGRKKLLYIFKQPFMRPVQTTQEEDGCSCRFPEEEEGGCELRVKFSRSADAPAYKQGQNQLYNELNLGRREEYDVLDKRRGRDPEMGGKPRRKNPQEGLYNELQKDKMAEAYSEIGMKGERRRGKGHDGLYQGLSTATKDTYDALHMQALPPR
Sequence of H63 CAR as expressed from H63 CAR-2A-TMEM59, on H63 CAR-2A-TMEM59-T lymphocytes (chain, as listed by the source): as above

Consider “biotin-protein L (ACROBIOSYSTEMS, RPL-P814R)”, for which the CAR positive cells % (protein L-positive) amounted to 82.7% in assay [1] and 83.2% in assay [2].

The values are drawn from patent publication US20220380433A1.
